Measurements: US20190359687A1 (Bayer, published 2019)
No end group written: not given here.

T1: GP10 peptide of the human GPA ectodomain (human, not fully specified (N-terminus))
T1 peptide: TVYPPEEE

T2: GP12 peptide of the human GPA ectodomain (human, not fully specified (N-terminus))
T2 peptide: YPPEEETG

T3: human glycophorin A on human red blood cells or red blood cell membranes (human, UniProt P02724 20-150)
T3 construct: whole, on cells; also called hRBC; human RBC membranes
T3 sequence (looked up): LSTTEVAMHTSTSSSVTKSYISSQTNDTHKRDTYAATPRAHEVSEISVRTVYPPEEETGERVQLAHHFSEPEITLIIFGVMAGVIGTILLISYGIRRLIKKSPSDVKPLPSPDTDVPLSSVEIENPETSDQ

T4: native human glycophorin A protein (human, UniProt P02724 20-150)
T4 construct: mature; also called Hu-nat GPA
T4 sequence (looked up): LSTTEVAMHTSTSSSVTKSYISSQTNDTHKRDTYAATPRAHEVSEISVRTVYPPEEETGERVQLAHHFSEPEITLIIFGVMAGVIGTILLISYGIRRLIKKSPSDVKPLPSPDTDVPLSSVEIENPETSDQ

T5: recombinant human glycophorin A ectodomain protein (human, UniProt P02724 20-91)
T5 construct: 72 amino acids of the extracellular region; also called Hu-rec GPA
T5 sequence: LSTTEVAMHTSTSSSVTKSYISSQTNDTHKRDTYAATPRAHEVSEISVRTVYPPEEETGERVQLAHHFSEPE


Key:
[1] = biological target: T1, GP10 peptide of the human GPA ectodomain; assay: ELISA, Fab 0.5 ug/ml on biotin-peptide on streptavidin plate
Excerpt: (§1) These peptides were attached to the surface of a streptavidin coated plate via a biotin moiety that was present at the N-terminus of each peptide.

[2] = biological target: T2, GP12 peptide of the human GPA ectodomain; assay: as above
Excerpt: as §1

[3] = biological target: T6, Cynomolgus monkey glycophorin A on Cynomolgus monkey red blood cells or red blood cell membranes (Cynomolgus monkey); assay: Fab 7 ug/ml on intact cyno RBC, unbound Fab by ELISA; pre-dilution
T6 construct: whole, on cells; also called Cyno RBC; Cynomolgus monkey RBC membranes
Description: (§2) The binding of affinity matured Fab antibodies to intact Cynomolgus monkey RBC was measured. Cynomolgus monkey RBC were isolated from fresh anti-coagulated blood by centrifugation through a ficol gradient and washing in PBS buffer. RBC diluted to 1/10th of normal hematocrit were incubated with the Fab at a final concentration of 7 ug/ml for 1 hour at room temperature on a rotating shaker after which a sample was taken and the RBC were pelleted by centrifugation and the supernatant was collected. The remaining RBC suspension was diluted 200-fold in PBS buffer and incubated for a total of 2 hours at room temperature on a rotating shaker and samples were removed at 0, 5 min, 20 min, 1 h and 2 h and the RBC pelleted and the supernatant collected. […] The amount of Fab in the supernatants was then measured using an ELISA assay and the results used to calculate the percentage of the input Fab that was bound to the RBC.

[4] = biological target: T3, human glycophorin A on human red blood …; assay: SPR (Biacore), Fab on human RBC membranes; T½ = 0.69/kd; * not accurate
Description: (§3) Kinetic analysis of the antibody binding to human red blood cell membranes was also performed using surface plasmon resonance (SPR) using a Biacore instrument. In this assay membranes prepared from human red blood cells were attached to a L1 sensor matrix and antibodies were flowed over the RBC membranes.
(§4) The binding kinetics of the affinity matured Fab antibodies was also measured.

[5] = biological target: T3, human glycophorin A on human red blood …; assay: SPR (Biacore), Fab on human RBC membranes; * not accurate, instrument limit
Description: as §3, §4

[6] = biological target: T6, Cynomolgus monkey glycophorin A on …; assay: Fab on intact cyno RBC, unbound Fab by ELISA; 0 min after 200-fold dilution
[7] = biological target: T6, Cynomolgus monkey glycophorin A on …; assay: Fab on intact cyno RBC, unbound Fab by ELISA; 5 min after 200-fold dilution
Description: as §2

[8] = biological target: T6, Cynomolgus monkey glycophorin A on …; assay: Fab on intact cyno RBC, unbound Fab by ELISA; 20 min after 200-fold dilution
Description: as §2

[9] = biological target: T6, Cynomolgus monkey glycophorin A on …; assay: Fab on intact cyno RBC, unbound Fab by ELISA; 60 min after 200-fold dilution
Description: as §2

[10] = biological target: T6, Cynomolgus monkey glycophorin A on …; assay: Fab on intact cyno RBC, unbound Fab by ELISA; 120 min after 200-fold dilution
[11] = biological target: T4, native human glycophorin A protein; assay: ELISA, Fab on coated native human GPA
[12] = biological target: T6, Cynomolgus monkey glycophorin A on …; assay: ELISA, Fab on coated cyno RBC membranes
[13] = biological target: T3, human glycophorin A on human red blood …; assay: ELISA, Fab on coated human RBC membranes
Description: These membranes are prepared by first isolating red blood cells from citrated whole blood. Citrated whole blood is layered on to Ficol and centrifuged at low speed for 20 minutes to pellet the red blood cells. The supernatant containing plasma and other blood cells is discarded and the red blood cell pellet is subsequently washed 3 times in 10 cell volumes of phosphate buffered saline (PBS). A 10 ml pellet of purified red blood cells is resuspended in 30 ml of cold low osmorality 20 mM phosphate buffer (pH7.4) and incubated for 30 mins to break open the RBC. After Centrifugation at 10,000 rpm for 30 min at 5° C. the hemoglobin containing supernatant is discarded. To the membrane pellet another 30 ml of 20 mM phosphate buffer is added and the sample centrifuged again at 10,000 rpm for 30 min at 5° C. to pellet the membrane fraction. This wash and centrifugation step is repeated another 4 times. The red blood cell membranes are then resuspended in 20 mL of PBS to achieve an equivalent of approximately 2.5E9 cells/mL and stored frozen at −20° C. Binding of antibodies to RBC ghost can be measured by ELISA in which the RBC ghost suspension (5×10⁶ in 100 ul PBS) was added to each well of flat bottom 96-well ELISA microtiter plates (2HB, Immunolon) and the plates incubated overnight at 4° C. The plates were blocked with Starting blocking buffer (Thermo Fisher) for 2 hours at room temperature (RT). Antibodies or other test molecules were added to each well and incubated for 1.5 hours at RT. After 4 washes 100 ul of an appropriate detection antibody was added to each well and incubated for 1 hour at RT. After 4 washes the detection antibody was measured using appropriate detection reagents.

[14] = biological target: T7, Cynomolgus monkey recombinant glycophorin A ectodomain (Cynomolgus monkey); assay: ELISA, Fab on coated recombinant cyno GPA ectodomain
T7 construct: extracellular domain

[15] = biological target: T5, recombinant human glycophorin A …; assay: ELISA, Fab on coated recombinant human GPA ectodomain
[16] = biological target: T3, human glycophorin A on human red blood …; assay: SPR (Biacore), Fab on human RBC membranes; T½ = 0.69/kd
Description: as §3, §4

[17] = biological target: T3, human glycophorin A on human red blood …; assay: SPR (Biacore), Fab over human RBC membranes, 1:1 fit; * slight deviation possible
Description: as §3

| Binder | binding signal in ELISA (relative light units) [1] [RLU] | binding signal in ELISA (relative light units) [2] [RLU] | percentage of input antibody bound [3] [%] | Estimated T½ [4] [days] | Kd [5] [nM] | koff [5] [s⁻¹] | percentage of input antibody bound [6] [%] | percentage of input antibody bound [7] [%] | percentage of input antibody bound [8] [%] | percentage of input antibody bound [9] [%] | percentage of input antibody bound [10] [%] | binding in ELISA relative to parental Fab [11] | binding in ELISA relative to parental Fab [12] | binding in ELISA relative to parental Fab [13] | binding in ELISA relative to parental Fab [14] | binding in ELISA relative to parental Fab [15] | Estimated T½ [16] [days] | Kd [17] [nM] | koff [17] [s⁻¹] | kon [17] [M⁻¹ s⁻¹] |
| --- | --- | --- | --- | --- | --- | --- | --- | --- | --- | --- | --- | --- | --- | --- | --- | --- | --- | --- | --- | --- |
| TPP-7790, affinity matured 6C12 Fab (Fab, V domains shown, Tested as Fab with a 6xHIS tag) VH: EVQLVQSGAEVKKPGASVKVSCKASGYTFTTYAIHWVRQAPGQGLEWMGYINPSSGYTRYNPKFKHRVTMTRDKSTSTAYMELRSLRSDDTAVYYCWTGTRDYWGQGTTVTVSS VL: DIQLTQSPSFLSASVGDRVTITCRASSSVRYIYWFQQKPGKAPKLLIYATSFLQSGVPSRFSGSGSGTEYTLTISSLQPEDFATYYCHQRNSFPYTFGQGTKLEIK | 38 | 0 | 94 | 596 | < 0.00233 | < 2e-05 | 87 | 90 | 90 | 87 | 85 |  |  |  |  |  |  |  |  |  |
| TPP-5906, humanized and germlined 6C12 Fab; VL: (S24R, A26S, S49A, P54Q, F95Y); VH: (I48M, D56G, D66G, L70M, T72R) (Fab, V domains shown, The text says that a 6xHIS tag is present on the Fabs in the peptide ELISA; it is not in the printed chains) VH: EVQLVQSGAEVKKPGASVKVSCKASGYTFTTYTIHWVRQAPGQGLEWMGYINPSSGYTRYNPKFKGRVTMTRDKSTSTAYMELRSLRSDDTAVYYCQTGTRDYWGQGTTVTVSS VL: DIQLTQSPSFLSASVGDRVTITCRASSSVSYIYWFQQKPGKAPKLLIYATSTLQSGVPSRFSGSGSGTEYTLTISSLQPEDFATYYCHQRNSFPYTFGQGTKLEIKR | 0 | -1 |  |  |  |  |  |  |  |  |  | 12.9 relative to parental Fab | 2.5 relative to parental Fab | 93.5 relative to parental Fab | 1.4 relative to parental Fab | 7.2 relative to parental Fab | 0.00139 | 0.9 | 0.0034 | 4e+06 |
